Test results: the supplement of paper PMC12458215
± gives the uncertainty stated by the source.

Each sequence was assayed on HEK293T (assay: plasma membrane surface immunostaining intensity (anti-HA, deep receptor scanning) (arbitrary fluorescence units); higher = higher plasma membrane expression). Conditions: GPCR class: A.

| Sequence | plasma membrane surface immunostaining intensity |
| --- | --- |
| MEPSATPGAQMGVPPGSREPSPVPPDYEDEFLRYLWRDYLYPKQYEWVLIAAYVAVFVVALVGNTLVCLAVWRNHHMRTVTNYFIVNLSLADVLVTAICLPASLLVDITESWLFGHALCKVIPYLQAVSVSVAVLTLSFIALDRWYAICHPLLFKSTARRARGSILGIWAVSLAIMVPQAAVMECSSVLPELANRTRLFSVCDERWADDLYPKIYHSCFFIVTYLAPLGLMAMAYFQIFRKLWGRQIPGTTSALVRNWKRPSDQLGDLEQGLSGEPQPRARAFLAEVKQMRARRKTAKMLMVVLLVFALCYLPISVLNVLKRVFGMFRQASDREAVYACFTFSHWLVYANSAANPIIYNFLSGKFREQFKAAFSCCLPGLGPCGSLKAPSPRSSASHKSLSLQSRCSISKISEHVVLTSVTTVLP [HCRTR1] | 1070 ± 130 |

Same assay, conditions: GPCR class: A (Olfactory)

| Sequence | plasma membrane surface immunostaining intensity |
| --- | --- |
| MEPRNQTSASQFILLGLSEKPEQETLLFSLFFCMYLVMVVGNLLIILAISIDSHLHTPMYFFLANLSLVDFCLATNTIPKMLVSLQTGSKAISYPCCLIQMYFFHFFGIVDSVIIAMMAYDRFVAICHPLHYAKIMSLRLCRLLVGALWAFSCFISLTHILLMARLVFCGSHEVPHYFCDLTPILRLSCTDTSVNRIFILIVAGMVIATPFVCILASYARILVAIMKVPSAGGRKKAFSTCSSHLSVVALFYGTTIGVYLCPSSVLTTVKEKASAVMYTAVTPMLNPFIYSLRNRDLKGALRKLVNRKITSSS [OR1M1] | 130 ± 31 |
| MERGNQTEVGNFLLLGFAEDSDMQLLLHGLFLSMYLVTIIGNLLIILTISSDSHLHTPMYFFLSNLSFADICFTSTTVPKMLVNIQTQSKMITFAGCLTQIFFFIAFGCLDNLLLTMTAYDRFVAICYPLHYTVIMNPRLCGLLVLGSWCISVMGSLLETLTILRLSFCTNMEIPHFFCDPSEVLKLACSDTFINNIVMYFVTIVLGVFPLCGILFSYSQIFSSVLRVSARGQHKAFSTCGSHLSVVSLFYGTGLGVYLSSAVTPPSRTSLAASVMYTMVTPMLNPFIYSLRNKDMKGSLGRLLLRATSLKEGTIAKLS [OR7C2] | 131 ± 26 |
| MERINHTSSVSEFILLGLSSRPEDQKTLFVLFLIVYLVTITGNLLIILAIRFNPHLQTPMYFFLSFLSLTDICFTTSVVPKMLMNFLSEKKTISYAGCLTQMYFLYALGNSDSCLLAVMAFDRYVAVCDPFHYVTTMSHHHCVLLVAFSCSFPHLHSLLHTLLLNRLTFCDSNVIHHFLCDLSPVLKLSCSSIFVNEIVQMTEAPIVLVTRFLCIAFSYIRILTTVLKIPSTSGKRKAFSTCGFYLTVVTLFYGSIFCVYLQPPSTYAVKDHVATIVYTVLSSMLNPFIYSLRNKDLKQGLRKLMSKRS [OR1L8] | 177 ± 72 |
| MERTNDSTSTEFFLVGLSAHPKLQTVFFVLILWMYLMILLGNGVLISVIIFDSHLHTPMYFFLCNLSFLDVCYTSSSVPLILASFLAVKKKVSFSGCMVQMFISFAMGATECMILGTMALDRYVAICYPLRYPVIMSKGAYVAMAAGSWVTGLVDSVVQTAFAMQLPFCANNVIKHFVCEILAILKLACADISINVISMTGSNLIVLVIPLLVISISYIFIVATILRIPSTEGKHKAFSTCSAHLTVVIIFYGTIFFMYAKPESKASVDSGNEDIIEALISLFYGVMTPMLNPLIYSLRNKDVKAAVKNILCRKNFSDGK [OR13C8] | 129 ± 16 |
| MESENRTVIREFILLGLTQSQDIQLLVFVLVLIFYFIILPGNFLIIFTIKSDPGLTAPLYFFLGNLAFLDASYSFIVAPRMLVDFLSAKKIISYRGCITQLFFLHFLGGGEGLLLVVMAFDRYIAICRPLHYPTVMNPRTCYAMMLALWLGGFVHSIIQVVLILRLPFCGPNQLDNFFCDVPQVIKLACTDTFVVELLMVFNSGLMTLLCFLGLLASYAVILCRIRGSSSEAKNKAMSTCITHIIVIFFMFGPGIFIYTRPFRAFPADKVVSLFHTVIFPLLNPVIYTLRNQEVKASMKKVFNKHIA [OR4N2] | 134 ± 28 |
| MESNQTWITEVILLGFQVDPALELFLFGFFLLFYSLTLMGNGIILGLIYLDSRLHTPMYVFLSHLAIVDMSYASSTVPKMLANLVMHKKVISFAPCILQTFLYLAFAITECLILVMMCYDRYVAICHPLQYTLIMNWRVCTVLASTCWIFSFLLALVHITLILRLPFCGPQKINHFFCQIMSVFKLACADTRLNQVVLFAGSAFILVGPLCLVLVSYLHILVAILRIQSGEGRRKAFSTCSSHLCVVGLFFGSAIVMYMAPKSSHSQERRKILSLFYSLFNPILNPLIYSLRNAEVKGALKRVLWKQRSM [OR2A12] | 126 ± 28 |
